This passage reports Kd results from PMC4648099.

In series [1] the target is T1, thrombin (alpha-thrombin) (UniProt P00734;P00734 328-363;364-622). The series is described as follows: competition (FAM fluorescence displacement); fit of pair TBA-FAM/TBA; 100 mM KCl; Fluorescence assays: 10 mM sodium cacodylate pH 7.2, 100 mM KCl, 20 °C, 20 nM FAM-aptamer (100 nM thrombin in displacement); EMSA: 1xTBE pH 8.3, 100 mM KCl (ann).
The target in series [2] is T1, thrombin (alpha-thrombin). As to the kind of experiment: competition (FAM fluorescence displacement); fit of pair TBA-FAM/TBA-N8; 100 mM KCl; Fluorescence assays: 10 mM sodium cacodylate pH 7.2, 100 mM KCl, 20 °C, 20 nM FAM-aptamer (100 nM thrombin in displacement); EMSA: 1xTBE pH 8.3, 100 mM KCl (ann).
Series [3] addresses T1, thrombin (alpha-thrombin). The series is described as follows: competition (FAM fluorescence displacement); TBA-FAM Kd fixed at 15 nM; 100 mM KCl; Fluorescence assays: 10 mM sodium cacodylate pH 7.2, 100 mM KCl, 20 °C, 20 nM FAM-aptamer (100 nM thrombin in displacement); EMSA: 1xTBE pH 8.3, 100 mM KCl (ann).

On to GGTTGGTGTGGTTGG (structured_DNA, 3' hexaethyleneglycol linker) [TBA-FAM], for which the Kd in series [1] was determined as 11.3 nM; in series [2], 18.3 nM.

As to GGTTGGTGTGGTTGG (structured_DNA) [TBA], the Kd in series [1] came to 15.8 nM; in series [3], 23.7 nM.
